The values that follow come from publication PMC9653487, “Structural basis for mechanotransduction in a potassium-dependent mechanosensitive ion channel” (Nature Communications, 2022).

Data set [1] concerns the molecule itself. Put plainly: cryo-EM structure; single-particle cryo-EM of EcMscK G924S in 0.02% GDN, 20 mM Tris-HCl pH 8.0, 150 mM NaCl or 150 mM KCl (datasets combined); refined with C7 symmetry; closed, intermediate and open classes.
Data set [2] deals with the molecule itself. In words: cryo-EM structure; single-particle cryo-EM of WT EcMscK in 0.02% GDN, 20 mM Tris-HCl pH 8.0, 150 mM NaCl; refined with C7 symmetry.

A word on the stoichiometry N: it is the number of molecules, sites or subunits per partner or assembly.

Substitutions are numbered along the chain they refer to. Names and notes keep the numbering of the source.

B1: E. coli MscK (EcMscK) G924S gain-of-function mutant channel (natural protein, UniProt P77338 34-1120, looked up)
chain: RASSNGDLPTKADLQAQLDSLNKQKDLSAQDKLVQQDLTDTLATLDKIDRIKEETVQLRQKVAEAPEKMRQATAALTALSDVDNDEETRKILSTLSLRQLETRVAQALDDLQNAQNDLASYNSQLVSLQTQPERVQNAMYNASQQLQQIRSRLDGTDVGETALRPSQKVLMQAQQALLNAEIDQQRKSLEGNTVLQDTLQKQRDYVTANSARLEHQLQLLQEAVNSKRLTLTEKTAQEAVSPDEAARIQANPLVKQELEINQQLSQRLITATENGNQLMQQNIKVKNWLERALQSERNIKEQIAVLKGSLLLSRILYQQQQTLPSADELENMTNRIADLRLEQFEVNQQRDALFQSDAFVNKLEEGHTNEVNSEVHDALLQVVDMRRELLDQLNKQLGNQLMMAINLQINQQQLMSVSKNLKSILTQQIFWVNSNRPMDWDWIKAFPQSLKDEFKSMKITVNWQKAWPAVFIAFLAGLPLLLIAGLIHWRLGWLKAYQQKLASAVGSLRNDSQLNTPKAILIDLIRALPVCLIILAVGLILLTMQLNISELLWSFSKKLAIFWLVFGLCWKVLEKNGVAVRHFGMPEQQTSHWRRQIVRISLALLPIHFWSVVAELSPLHLMDDVLGQAMIFFNLLLIAFLVWPMCRESWRDKESHTMRLVTITVLSIIPIALMVLTATGYFYTTLRLAGRWIETVYLVIIWNLLYQTVLRGLSVAARRIAWRRALARRQNLVKEGAEGAEPPEEPTIALEQVNQQTLRITMLLMFALFGVMFWAIWSDLITVFSYLDSITLWHYNGTEAGAAVVKNVTMGSLLFAIIASMVAWALIRNLPGLLEVLVLSRLNMRQGASYAITTILNYIIIAVGAMTVFGSLGVSWDKLQWLAAALSVGLSFGLQEIFGNFVSGLIILFERPVRIGDTVTIGSFSGTVSKIRIRATTITDFDRKEVIIPNKAFVTERLINWSLTDTTTRLVIRLGVAYGSDLEKVRKVLLKAATEHPRVMHEPMPEVFFTAFGASTLDHELRLYVRELRDRSRTVDELNRTIDQLCRENDINIAFNQLEVHLHNEKGDEVTEVKRDYKGDDPTPAVG
notes: E. coli mechanosensitive channel MscK, 1120 amino acids, full length, with the point mutation G924S made by site-directed mutagenesis; Homoheptamer; closed, intermediate and open conformations came from the same sample; A few residues of the PreScission site are left at the C-terminus after cleavage; The deposited models lack unresolved parts, and some segments are polyalanine; also called G924S …
As to B1, the “stoichiometry N” value in data set [1] was found to be 7.

B2: E. coli MscK (EcMscK), full-length wild-type channel (natural protein, UniProt P77338 34-1120, looked up)
chain: B1 chain with S891G
notes: E. coli mechanosensitive channel MscK, 1120 amino acids, full length, codon-optimized synthetic DNA; Homoheptamer; A few residues of the PreScission site are left at the C-terminus after cleavage; also called WT EcMscK; WT channel; not shown: GFP, C-terminal, cleaved; His10, C-terminal, cleaved
For B2, the binding result in data set [2] was “binds”.
